Test results taken from the RNAGym collection of RNA variant scans (doi:10.7554/elife.80360).

B1: CPEB3 Ribozyme (parent)
chain: GGGGGCCACAGCAGAAGCGUUCACGUCGCGGCCCCUGUCAGAUUCUGGUGAAUCUGCGAAUUCUGCUGU

Variants of: B1
Experiment: self-cleavage, relative activity (ratio to wild type); higher = more cleavage; co-transcriptional

In order of falling self-cleavage:
1. A15G A51G  1.05
2. A15G G47C  1.05
3. A15G G47U  1.04
4. A15G U46A  1.04
5. G14U U69C  1.03
6. A15G A52G  1.03
7. A15U U69C  1.03
8. A15C U62G  1.02
9. A15C U69G  1.02
10. A15G G68U  1.01
11. A15U U62A  1.01
12. A15G G50U  0.995
13. A15G U44C  0.99
14. A15G U44A  0.987
15. A15U U46A  0.985
16. A15G U46G  0.974
17. A15U G68U  0.967
18. A15C G68A  0.966
19. A15U G48C  0.965
20. A15G G58A  0.964
21. A15G A51U  0.963
22. A15C U69A  0.962
23. A15U U69A  0.961
24. A15G A52U  0.959
25. A15G G50C  0.956
26. A15G U44G  0.954
27. A15C C45U  0.949
28. A15G A42U  0.946
29. A15U G50A  0.943
30. G14U U69G  0.94
31. A15G U62G  0.94
32. A15G U64C  0.939
33. A15U A52G  0.939
34. A15C C63U  0.937
35. A15U G68A  0.937
36. A15C G58U  0.936
37. A15U U61A  0.931
38. A15C U46G  0.929
39. A15G C39G  0.928
40. G14U U69A  0.923
41. A15C C63A  0.921
42. A15G A23C  0.919
43. A15C A23U  0.917
44. A15C U67A  0.916
45. A15U C32U  0.913
46. A15C U62A  0.912
47. A15C C33U  0.911
48. A15C C34U  0.909
49. A15U G48U  0.9
50. A15U U46G  0.898
51. A15C A51G  0.897
52. A15C G47C  0.894
53. A15G C39U  0.893
54. A15G U53A  0.893
55. A15C G47A  0.889
56. A15C U49A  0.889
57. A15C U67C  0.888
58. A15C G50U  0.878
59. A15G U38A  0.877
60. A15G C24U  0.87
61. A15C C45G  0.865
62. A15G C66G  0.862
63. A15U C45U  0.858
64. A15C C32U  0.853
65. A15G A40U  0.851
66. A15G U43A  0.851
67. A15U A51U  0.851
68. A15G U21C  0.847
69. A15G U64A  0.845
70. A15C U62C  0.841
71. A15U U21A  0.841
72. A15C A23C  0.835
73. A15U U67C  0.827
74. A15C A51U  0.826
75. A15G G65A  0.82
76. A15C A52U  0.816
77. A15C A59G  0.798
78. A15U C45A  0.795
79. A15G U43G  0.779
80. A15G G41C  0.777
81. A15C C45A  0.772
82. A15U C63G  0.764
83. A15U G65A  0.753
84. A15C A52C  0.748
85. A15G G41A  0.732
86. A15U U44G  0.713
87. A15C C35U  0.686
88. A15U A42G  0.68
89. A15C A23G  0.659
90. A15G A59C  0.649
91. A15G A40C  0.631
92. A15G G30C  0.618
93. A15U U38C  0.613
94. A15C U26G  0.586
95. A15U C39U  0.583
96. A15G A60U  0.579
97. A15U A16G  0.56
98. A15C U53G  0.558
99. A15G G31U  0.558
100. A15U U36C  0.557
101. A15U G56U  0.517
102. A15U U44C  0.516
103. A15C U43G  0.491
104. A15U G65U  0.47
105. A15C G41U  0.463
106. A15C U43A  0.459
107. A15C A40U  0.451
108. A15C U53C  0.451
109. A15C G56C  0.446
110. A15G C32G  0.415
111. A15C G65U  0.411
112. A15G C24G  0.405
113. A16C A52G  0.389
114. A15C C39A  0.359
115. A15G C29U  0.358
116. A15C A59U  0.353
117. A15C C66G  0.351
118. A15U U55G  0.335
119. A15U A60U  0.325
120. A15U C57U  0.323
121. A15C U55G  0.32
122. A15U C24A  0.299
123. A15C C29A  0.297
124. A15G C57U  0.294
125. A15U C33G  0.294
126. A15U A40U  0.288
127. A15C C57A  0.282
128. A15U G41A  0.28
129. A15C G65C  0.277
130. A15C C24G  0.269
131. A15C C57G  0.269
132. A15C G31U  0.241
133. A16C A42G  0.24
134. A15G G37C  0.239
135. A16C A59U  0.221
136. A16C A60C  0.215
137. A15C G19C  0.214
138. A15C G25U  0.192
139. A15U C35A  0.192
140. A15G C22A  0.191
141. A15C G30C  0.189
142. A15U C35G  0.187
143. A15C G25C  0.186
144. A15C G19A  0.185
145. A15U G17C  0.171
146. A15G G28C  0.165
147. A15U G25C  0.165
148. A15C G19U  0.164
149. A15U G28A  0.161
150. A16C C24A  0.161
151. A16C A40G  0.16
152. A15C U21G  0.157
153. A15G C22G  0.157
154. A15U C27U  0.153
155. A15U C29U  0.151
156. A15C C22A  0.148
157. A15G A16C  0.145
158. A15G G17C  0.138
159. A15C C34G  0.131
160. A15C G17C  0.131
161. A16C C18U  0.128
162. A15G U20C  0.126
163. A15U G25A  0.121
164. A16C A59C  0.106
165. A15C C27A  0.091
166. A15C C22G  0.0813
167. A16C C22U  0.0688
